The source of these data is the DeepSol protein solubility set.

The nature of the data set: soluble on expression in E. coli; label from the status in PepcDB or PDB records.
For the sequence “MGSDKIHHHHHHMNEIFVFHGQEVRTVTINNEPWFVGKDVADILGYSKSRNAIALHVDEDDALKQGITDNLGRMQETIIINESGLYSLILSSKLPQVKEFKRWVTSEVLPQIRQQGAYVPENLSDEAFIALFTGQKKLKEHQLALAQDVDYLKNEQPIHPSFAQALLKKRKARVVSCLGGMDSPAYADKVFAQSVFRQAEVDFKDHFNINRYDMLPKKFAEAALSYWMTWEPSTNTKMKILEMNAYEL”, the “soluble on expression in E. coli” value is given as “not soluble”.

On to “MGSDKIHHHHHHMMKSNENNGAVTKSFAKKMESISPFELKNKLIEMADESIKKIAHTMLNAGRGNPNWIATTPREAFFLLGKFGLEECRRVMYLPEGIAGIPQKDGIAARFETFLKTNHSQPGAELLKGTYQYMLLEHAADPDTLVHEWAEGVVGDQYPVPDRILQFTEMIVQDYLAQEMCDRRPPKGKYDLFATEGGTAAMCYVFDSLQENFLLNKGDGIALMVPVFTPYIEIPQLRRYEFNVTEISADQMTTDGLHTWQYKDEDIDRLRNPQIKALFITNPSNPPSYTLSPETAARIVDIVKKDNPNLMIITDDVYGTFSPHFRSLMAELPQNTLCVYSFSKYFGATGWRDAVIALHEENIFDRMIAHLPEEQKTILNKRYSSLTLTPEKLKFIDRMVADSRQVALNHTAGLSLPQQTQMSLFASFAILDKENRYKNKMQEIIRRRLKALWDNTGFSLVDDPLRVGYYSEIDMLVWAKIFYGEEFVSYLKKTYSPLDVVFRLANETSLVLLNGGGFAGPEWSVRVSLANLNEKDYVKIGQGIKRILDEYAVKWQESRK”, for which the “soluble on expression in E. coli” value is listed as “not soluble”.

“MGSDKIHHHHHHAETVVVRLGLFTESISLTELQNAAKTGELPRSLQSYAKGLSEQQRRFLLGALGMNIPMNVVTINKLLNTQIGTTILNDFATALARKDNAGVQALRGGLVLGSTAPGGLSILSFIAAYPSKRLEIDLPKAFIVAGNLNTAFWRTQQFMVAIAPRLDSTTSQIAFPFDPSQPGTAQVKILNLSLNDQKRQRKIPVDIYWSNDATANKPLIVFSHGLGSVRTDLRYLAEHLASHGYVVAALEHPGSNEDNINSALQGKTRPVKPQEFLNRPQDVSFVLDELEKLNQTTNHPLQGKLATMNAMVVGYSFGGSTALALAGGELQLERLKQRCKKNLAILSLGEAMQCIAQELPENTYQLRDTRIKQAIALNPTTSLIFGETGLTKVQVPTLVLAGSADKTTPALTEQIVGFDKIPSPKWLVGIVGGTHLSVKDPSKTMDQIGQPNTPISGGEVVGEQAADIRKYLKAITLAFAAQMTPEAKNYAIFLTSDYAQFASTKAFPFRLITQIPSNAMPVVKEFGDK”: the “soluble on expression in E. coli” value is listed as “not soluble”.

On to “MAHHHHHHMRPKKSAFKLAQRGERHLLHGNSEVSNFYGISESGFSNSRPPPYLLRFDKCNDIIAYTNEVDSECLKQIKNLAMLDIIKGHVTILPDVHLGKGIIIGSVFLTKDFIIPNGVGVDIGCGVLCVKINKLKKKNLREHIINNIYKKIKRNVPLSFDSHEKEVFDAKKVLDGLVAKYASRNMAHIMTPRHLKQMGTLGGGNHFIEIAYDASDGGEEALSGNQSGETHQNDAPHSYTSEQNHSPESDIYILIHSGSRNIGKRTAEFYDELASQESKVKRNDLAYLDLKKEQGQNYLKDMQLCLEYAKCNRIYMMKIIERIIYEEVNCTLDWQSVINIHHNFCNQELVTYVHSGEVKREYMYVTRKGATSSKKNQLGVIPGNMKVGSYIVRGKGNKLSYSSCSHGCGRVLSRTHAKKIINQTDFVNIMRGVRCDTNARIRDEAPQAYKNLGQVLRNQDSLVHVVRRLLPLINVKGE”, for which the “soluble on expression in E. coli” value was “not soluble”.

As to “MATQRAHRAETPAHPNRLWIWEKHVYLDEFRRSWLPVVIKSNEKFQVILRQEDVTLGEAMSPSQLVPYELPLMWQLYPKDRYRSADSMYWQILYHIKFRDVEDMLLELIDSESNDE”, the “soluble on expression in E. coli” value is listed as “soluble”.

For the sequence “MRPSGRMENKKQSKGASRGSRRRSINTSNSNTSARHAFSPCSYSSSGTEIRKVAISVSSNSTTELPCAQSPNVGSRTSDSHQLTLGSDLRSEPNNLNIAATLAEPNIAEHFKGVLTKKEAANLTRRDDFTMYYRVVKDQAKVELETTIPLFICYRNSENKVFSFRVEQVLTENNSMWWTVMINKQHTQMFRRLLDLVRCYHSYRFINPETRSQEMFPIWKYTNQASMNP”, the “soluble on expression in E. coli” value was “not soluble”.

Take “VKIFERFRKACDEFFKKKGEFFKLLKEGMNANLEKKKALCEKAESLKDSTEWKETAEILTKLQKEWKTIGPVSKKYS”: the “soluble on expression in E. coli” value is “not soluble”.

Consider “IDPFTADAGHTEFTDEVYQNESRYPGGDWKPAEDTYTDANGDKAASPSELTCPPGWEWEDDAWSYDINRAVDEKGWEYGITIPPDHKPKSWVAAEKMYHTHRRRRLVRKRKKDLTQTASSTAR”, for which the “soluble on expression in E. coli” value is recorded as “soluble”.

Regarding “MNLDKPLLPGQVIGIIGGGHLAKMMALSAREMGFRVGVLDPQIDCPAAQVADWQLLGAYNDPEALEKLAKRAQVITYEFEHADVDALTAIQHLANIPQGTDILAITQDRLMEKSFLEDNNIVIAPYATIVSPTDIQEAIDGIGYPCILKNTRGEGRYVLHSTSDLAPSMNLLREGTCVLEAWIPYEKELSVLISGNGRGEFATFPVVETIKKERKLHETIAPARIDDEVSGELQRIAKVIAKAVGLVGTLSIEMFYTETGGIYVNKILPRPEDAGNFSIDACSFSQYDTHIRGLCNWPMPTIQLLSEAVTVNVLGNEAYETMDIINEHPDWHFHYYGHSEAKAQRAMGHITILTKEIDETLEEIKETKIWS”, the “soluble on expression in E. coli” value is recorded as “not soluble”.

On to “PKYTIVDKETCIACGACGAAAPDIYDYDEDGIAYVTLDDNQGIVEVPDILIDDMMDAFEGCPTDSIKVADEPFDGDPNKFE”, for which the “soluble on expression in E. coli” value was “soluble”.

Consider “MPAHRSDPTSSVIELNDVVFCWPGASSPTLDIAHLQIARGEHLFVKGPSGCGKSTLLSLLTGINTATQGVVSLLGSDLSRLSASQRDRFRADHIGYIFQQFNLLPYLSVLDNVTLPCHFSALRKQQVDGPLSHKAQSLLERLHLPSALLNKPVTELSIGQQQRVAAARALMGEPQLIIADEPTSALDYDNREAFIALLREEAERVGSTLVFVSHDPTLEKLFERSVHLPTLNRAGGWQ”, for which the “soluble on expression in E. coli” value was “not soluble”.

“MKKVRDPLEVTVVGQNIIVADDNYKWLQILPEKKRYSITVMFDNKGNPLEYYFDINIKNITQKGNARTVDLCLDVLALPSGEYELVDEDDLMFALESEQIT”: the “soluble on expression in E. coli” value is “not soluble”.

On to “MATTAQKIKEVEDEMAKTQKNKATAKHLGMLKAKLAKLKRELITPTGGGGGGGLGFDVARTGIGTVGFIGFPSVGKSTLMTQLTGTRSEAAAYEFTTLTTVPGVLQYNGAKIQILDLPGIIEGAKDGRGRGKQVITVARTCNLIFIVLDVLKPMSHKRIIEEELEGFGIRLNKEPPNIVFKKKERGGINITNTVPLTHIDLDEIRAVCSEYRVNSADIAFRCDATIDDLIDVLEGNRVYIPALYVLNKIDSISIEELDLIDRIPNAVPICGNRGWNIDELKETMWDYLNLVRVYTRPRGLEPDYSEPVILRTGHSTVEDFCNNIHSSIKSQFKHAYVWGKSVPYPGMRVGLSHVLLDEDVVTIVKK”, for which the “soluble on expression in E. coli” value was “not soluble”.

Turning to “MPINFHDANNKYTYAQRNAHISWGEMIKGITNIQNKQIIDIGCGGGIYTKELALMGAKSVVGLDFSKEILQAAKENCSGFSNISFIHGDAHSTPYPNDTFDIVISRAVIHHLQDIPTFLREASRILKKNGVLIVQDRTIEDCTIPGSPEHIRGYFFSIFPKLIEIESKRRPKTTTIQKELQKYFLHVFPTQTQWEVRKIHDSVEALLQDLSPRTGRSILYELTDYELSQLLQQVQTALQNVSPIIERDRWTIWSAMKL”, the “soluble on expression in E. coli” value was “not soluble”.

Consider “MKIGIGSDHGGYNLKREIADFLKKRGYEVIDFGTHGNESVDYPDFGLKVAEAVKSGECDRGIVICGTGLGISIAANKVPGIRAAVCTNSYMARMSREHNDANILALGERVVGLDLALDIVDTWLKAEFQGGRHATRVGKIGEIEKKYSK”, for which the “soluble on expression in E. coli” value is given as “soluble”.

Regarding “MPQITLSAEVQPEQMGQRLDQTLAELFPEYSRSRLKTWIEADLVKLNDRITNIPREKVLGGERIEIIVEVEDETRFEAENIPLNIVYEDDDIIVINKPKDLVVHPGAGNPNGTVLNALLYHYPPIVEVPRAGIVHRLDKDTTGLMVVAKTIPAQTKLVRDLQKRKITREYEAVASGIMTKGGTVDQPMARHATKRTLMAVHPMGKPAVTHYRIMENYRNYTRLRLRLETGRTHQIRVHMAHIAHPLLGDQTYGGRPRPPKNASEDFMEVLRNFKRQALHAVMLRLAHPITGEMMEWYAPLPDDFVELLNALKADYLEHQDELDY”, the “soluble on expression in E. coli” value was “soluble”.

“MKKVQPLNPEQVKRFLETAKQDPLYPAFLLALGTGLRRGEILGLRWQDLDLQKGILQVRQSLIRTREGLKFEEPKTEKSRRQIPLPPSVVAALKRHKAWVNQNKLILGPDYEDHDLVFPVENGRPRDPKGFAEYFNRLLDKAGLPHIRLHDLRHTHATLLLLEGVHPKVVQERLGHSTVSITLDIYSHILPGLQEKAAERIDGLLQPKENPSPKEGTIKLEHHHHHH”: the “soluble on expression in E. coli” value is “soluble”.

For the sequence “MAHHHHHHMRRVVITGLGLVSPLASGVEETWKRLLAGESGARRVTEFEVDDLACQIACRIPVGDGTNGTFNPDLHMDPKEQRKVDPFIVYAVGAADQALDDAGWHPENDEDQVRTGVLIGSGIGGIEGIVEAGYTLRDKGPRRISPFFIPGRLINLASGHVSIKHKLRGPNHSVVTACATGTHAIGDAARLIAFGDADVMVAGGTESPVSRISLAGFAACKALSTERNDDPTAASRPYDEDRDGFVMGEGAGIVVLEELEHALARGAKIYAEVIGYGMSGDAFHITAPTESGEGAQRCMVAALKRAGIVPDEIDYINAHGTSTMADTIELGAVERVVGEAAAKISMSSTKSSIGHLLGAAGAAEAVFSTLAIRDNIAPATLNLDNPAAQTRIDLVPHKPRERKIDVALSNSFGFGGTNASLVLRRYTA”, the “soluble on expression in E. coli” value is “soluble”.

Regarding “MGSDKIHHHHHHMFVTELRFECFADTSIEAAEKAINNFLEALRANGQVLGREFAVAFNDGEFRVRLLIPERSSLANRYNSPWVKVALNGLTEAKILAPREKFIGQDINSEASNTHQPSWQLLYTSYVHMCSPLRNGDNLLPIPLYQIPATFNGDHKRMIKWQSEWQACDELQMAAATKAEFAALDEISNTDSDLFRRGWDLRGRIEYLTKIPTYYYLYRVGGESLNAELSRPCPKCGSLEWKLAEPLLDMFQFRCEPCRIVSNLSWDHQ”, the “soluble on expression in E. coli” value is on record as “not soluble”.

“MGSDKIHHHHHHMSIYNSIGKQYSQTRVPDIRIVNAIINLLNLPKGSVIADIGAGTGGYSVALANQGLFVYAVEPSIVMRQQAVVHPQVEWFTGYAENLALPDKSVDGVISILAIHHFSHLEKSFQEMQRIIRDGTIVLLTFDIRLAQRIWLYDYFPFLWEDALRFLPLDEQINLLQENTKRRVEAIPFLLPHDLSDLFAAAAWRRPELYLKAEVRAGISSFALANQDLVEKGLELLTADLNNGEWIRKYGEIHHLQEIDIGYRFIYTTLDK”: the “soluble on expression in E. coli” value is on record as “not soluble”.

For “MDDITDGLRYRISNVIHVSPELTYDGRIMSAGKLLKLMDDLGGIICLRYLDHNSSNLYDNSFNAVVTVAVKGLAFYSPIRLNDIILIRAGLVYVGNTSADILINVVREDLNGAKEHVATAYFTYVRVDKDGKPIKIP”, the “soluble on expression in E. coli” value was “soluble”.

For “MAHHHHHHMAQNPWFVKKSKTLRTSQLEKFINKFNEEYEHLMHMTRFKYIKRTLESIKENSDLIINKKTFSILRISCVAQLQPKYLNKIDDGISVYLSNFMLKANHDVEGFCLCFNKIKLKEKESRVMNNDPSIMFVKISFKLLILVLKENYEIKAKINKIEPLKIHLDIFGIVEAIFSEDMFKDFHYDSRNNRFRREGKFFSLYDIVLFTIKKITYGDNGANVKVIGYF”, the “soluble on expression in E. coli” value is on record as “not soluble”.
